In patent publication US20260184748A1 (University of Pennsylvania, published 2026):
Where no end group is shown, it is not given here.

What was measured:
Assay in all cases: cell-based or functional assay
ADRA1B = molecular target: T1, ADRA1B (UniProt P35368 1-520)
T1 sequence (looked up): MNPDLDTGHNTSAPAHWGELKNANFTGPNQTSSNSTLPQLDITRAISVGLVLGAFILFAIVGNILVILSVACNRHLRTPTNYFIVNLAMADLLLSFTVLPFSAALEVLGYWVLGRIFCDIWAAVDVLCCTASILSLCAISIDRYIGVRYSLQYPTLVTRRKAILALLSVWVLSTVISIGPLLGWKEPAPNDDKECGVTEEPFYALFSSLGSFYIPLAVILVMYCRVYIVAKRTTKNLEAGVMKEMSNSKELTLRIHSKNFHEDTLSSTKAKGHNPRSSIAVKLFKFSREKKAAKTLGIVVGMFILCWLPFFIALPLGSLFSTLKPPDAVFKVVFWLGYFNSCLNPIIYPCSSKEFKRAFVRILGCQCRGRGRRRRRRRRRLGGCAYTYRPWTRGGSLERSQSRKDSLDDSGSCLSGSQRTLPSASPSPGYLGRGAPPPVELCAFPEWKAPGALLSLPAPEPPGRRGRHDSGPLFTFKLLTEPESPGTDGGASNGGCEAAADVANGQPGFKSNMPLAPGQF

GLP1R = GLP1R (UniProt P43220 24-463)
Sequence of GLP1R (P43220 24-463 limits assumed): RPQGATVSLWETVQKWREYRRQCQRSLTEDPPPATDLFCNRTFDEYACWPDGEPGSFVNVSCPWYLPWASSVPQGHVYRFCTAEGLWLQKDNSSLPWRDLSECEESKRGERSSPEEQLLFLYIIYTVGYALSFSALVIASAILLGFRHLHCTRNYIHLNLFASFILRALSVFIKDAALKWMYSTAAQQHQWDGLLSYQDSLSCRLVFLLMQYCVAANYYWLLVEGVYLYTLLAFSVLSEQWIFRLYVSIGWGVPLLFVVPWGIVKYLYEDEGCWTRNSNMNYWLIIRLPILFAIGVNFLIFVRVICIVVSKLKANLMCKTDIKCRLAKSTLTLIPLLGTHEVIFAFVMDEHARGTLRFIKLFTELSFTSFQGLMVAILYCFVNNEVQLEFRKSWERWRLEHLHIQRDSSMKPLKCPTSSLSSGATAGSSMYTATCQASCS

PTGER3 = molecular target: T2, PTGER3 (UniProt P43115 1-390, limits assumed)
T2 sequence (looked up): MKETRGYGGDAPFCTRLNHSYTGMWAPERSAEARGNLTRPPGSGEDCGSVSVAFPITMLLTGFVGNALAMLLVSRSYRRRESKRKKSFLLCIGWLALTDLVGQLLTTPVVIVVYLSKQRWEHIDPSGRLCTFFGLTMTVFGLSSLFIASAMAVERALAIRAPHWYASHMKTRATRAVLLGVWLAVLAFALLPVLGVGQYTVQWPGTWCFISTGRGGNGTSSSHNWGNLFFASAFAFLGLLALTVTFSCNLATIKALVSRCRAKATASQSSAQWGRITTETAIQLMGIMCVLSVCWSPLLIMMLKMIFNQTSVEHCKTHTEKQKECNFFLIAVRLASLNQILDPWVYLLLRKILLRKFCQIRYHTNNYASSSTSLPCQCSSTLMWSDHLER

HRH2 = HRH2 (UniProt P25021 1-359)
Sequence of HRH2 (P25021 whole entry): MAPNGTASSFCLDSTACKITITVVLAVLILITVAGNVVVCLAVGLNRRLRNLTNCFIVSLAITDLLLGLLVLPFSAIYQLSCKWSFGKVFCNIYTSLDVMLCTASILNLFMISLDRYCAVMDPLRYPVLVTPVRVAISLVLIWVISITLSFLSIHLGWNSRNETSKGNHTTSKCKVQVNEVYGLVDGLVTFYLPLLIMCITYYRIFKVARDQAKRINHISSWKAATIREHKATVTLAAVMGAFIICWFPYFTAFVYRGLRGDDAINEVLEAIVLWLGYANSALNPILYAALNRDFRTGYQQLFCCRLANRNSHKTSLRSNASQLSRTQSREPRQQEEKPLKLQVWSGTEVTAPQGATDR

OPRK1 = OPRK1 (UniProt P41145 1-380)
Sequence of OPRK1 (P41145 whole entry): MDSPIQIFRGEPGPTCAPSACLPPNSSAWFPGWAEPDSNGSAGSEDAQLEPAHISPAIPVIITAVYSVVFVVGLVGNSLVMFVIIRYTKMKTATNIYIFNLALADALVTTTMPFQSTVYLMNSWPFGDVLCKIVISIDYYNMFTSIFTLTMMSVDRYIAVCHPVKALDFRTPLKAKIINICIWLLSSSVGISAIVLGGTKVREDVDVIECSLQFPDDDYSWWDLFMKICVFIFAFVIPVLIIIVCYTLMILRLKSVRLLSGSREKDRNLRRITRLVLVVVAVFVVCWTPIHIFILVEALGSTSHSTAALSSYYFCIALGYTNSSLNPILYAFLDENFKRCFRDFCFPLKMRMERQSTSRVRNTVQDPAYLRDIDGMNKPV

CXCR7 = CXCR7 (UniProt P25106 1-362)
Sequence of CXCR7 (P25106 whole entry): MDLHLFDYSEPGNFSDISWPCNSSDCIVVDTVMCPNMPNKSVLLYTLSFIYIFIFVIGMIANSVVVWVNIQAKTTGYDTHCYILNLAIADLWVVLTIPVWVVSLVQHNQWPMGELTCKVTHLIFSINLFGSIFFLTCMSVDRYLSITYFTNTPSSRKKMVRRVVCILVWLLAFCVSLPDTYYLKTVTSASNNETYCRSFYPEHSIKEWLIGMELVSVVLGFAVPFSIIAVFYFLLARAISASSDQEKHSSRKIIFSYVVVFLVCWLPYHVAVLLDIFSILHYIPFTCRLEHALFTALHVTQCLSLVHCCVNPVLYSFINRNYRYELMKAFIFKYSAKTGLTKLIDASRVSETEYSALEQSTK

FSHR = molecular target: T3, FSHR (UniProt P23945 18-695)
T3 sequence (looked up): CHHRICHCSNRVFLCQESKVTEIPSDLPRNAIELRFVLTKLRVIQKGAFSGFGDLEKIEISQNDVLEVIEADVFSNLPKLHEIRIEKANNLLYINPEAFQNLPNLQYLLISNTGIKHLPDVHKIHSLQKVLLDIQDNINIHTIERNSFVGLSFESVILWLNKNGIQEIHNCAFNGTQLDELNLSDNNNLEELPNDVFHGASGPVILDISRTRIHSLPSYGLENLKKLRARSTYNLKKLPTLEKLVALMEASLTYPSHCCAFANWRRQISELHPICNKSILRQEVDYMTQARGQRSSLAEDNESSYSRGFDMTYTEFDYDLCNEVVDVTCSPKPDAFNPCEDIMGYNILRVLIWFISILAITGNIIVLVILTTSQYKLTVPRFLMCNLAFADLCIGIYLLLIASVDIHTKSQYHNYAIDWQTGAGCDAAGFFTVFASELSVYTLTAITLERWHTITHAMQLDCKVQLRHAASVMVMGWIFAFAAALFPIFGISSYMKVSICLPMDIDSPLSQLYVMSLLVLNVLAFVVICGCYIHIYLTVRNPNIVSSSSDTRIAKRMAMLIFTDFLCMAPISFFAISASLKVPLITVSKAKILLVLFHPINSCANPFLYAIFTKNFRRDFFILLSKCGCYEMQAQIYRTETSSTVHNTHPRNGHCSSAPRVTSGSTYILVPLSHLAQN

CCR4 = molecular target: T4, CCR4 (UniProt P51679 1-360)
T4 sequence (looked up): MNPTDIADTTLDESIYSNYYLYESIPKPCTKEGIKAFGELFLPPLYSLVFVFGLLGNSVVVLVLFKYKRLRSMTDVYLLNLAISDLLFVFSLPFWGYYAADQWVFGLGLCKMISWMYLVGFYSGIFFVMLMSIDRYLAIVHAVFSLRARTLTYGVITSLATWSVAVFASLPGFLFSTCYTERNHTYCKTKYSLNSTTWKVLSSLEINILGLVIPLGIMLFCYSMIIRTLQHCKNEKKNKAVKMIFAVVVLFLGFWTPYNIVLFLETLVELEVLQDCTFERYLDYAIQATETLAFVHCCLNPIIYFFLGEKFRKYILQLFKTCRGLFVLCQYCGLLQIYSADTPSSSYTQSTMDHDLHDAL

FFAR1 = FFAR1 (UniProt O14842 1-300)
Sequence of FFAR1 (O14842 whole entry): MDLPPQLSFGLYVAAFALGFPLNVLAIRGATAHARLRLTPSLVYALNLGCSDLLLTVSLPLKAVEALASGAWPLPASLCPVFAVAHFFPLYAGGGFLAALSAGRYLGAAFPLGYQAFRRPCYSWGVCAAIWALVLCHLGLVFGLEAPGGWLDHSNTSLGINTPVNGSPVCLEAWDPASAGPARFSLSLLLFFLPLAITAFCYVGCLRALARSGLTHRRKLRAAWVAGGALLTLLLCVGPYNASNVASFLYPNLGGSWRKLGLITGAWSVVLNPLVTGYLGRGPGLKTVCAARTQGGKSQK

EDG5 = EDG5 (UniProt O95136 1-353)
Sequence of EDG5 (O95136 whole entry): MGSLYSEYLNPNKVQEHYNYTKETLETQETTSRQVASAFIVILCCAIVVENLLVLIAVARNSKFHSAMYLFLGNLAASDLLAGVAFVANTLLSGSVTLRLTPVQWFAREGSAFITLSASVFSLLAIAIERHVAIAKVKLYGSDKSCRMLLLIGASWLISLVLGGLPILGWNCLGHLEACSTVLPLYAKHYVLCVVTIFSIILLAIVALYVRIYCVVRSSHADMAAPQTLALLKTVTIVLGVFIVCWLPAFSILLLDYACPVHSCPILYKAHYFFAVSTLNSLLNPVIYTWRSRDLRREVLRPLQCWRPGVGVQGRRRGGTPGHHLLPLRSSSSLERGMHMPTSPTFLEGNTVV

NMU1R = molecular target: T5, NMU1R (UniProt Q9HB89 1-426, limits assumed)
T5 sequence (looked up): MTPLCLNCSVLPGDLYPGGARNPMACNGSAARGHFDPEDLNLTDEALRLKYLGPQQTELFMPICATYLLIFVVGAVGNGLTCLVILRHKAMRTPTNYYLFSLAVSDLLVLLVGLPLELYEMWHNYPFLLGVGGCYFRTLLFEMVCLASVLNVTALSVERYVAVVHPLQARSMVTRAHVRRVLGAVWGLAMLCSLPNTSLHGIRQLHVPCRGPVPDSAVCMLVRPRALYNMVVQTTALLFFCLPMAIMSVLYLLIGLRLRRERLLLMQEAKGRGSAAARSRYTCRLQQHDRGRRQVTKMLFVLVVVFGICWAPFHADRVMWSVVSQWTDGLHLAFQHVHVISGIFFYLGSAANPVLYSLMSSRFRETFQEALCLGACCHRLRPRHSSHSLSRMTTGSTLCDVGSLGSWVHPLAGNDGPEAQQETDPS

B1: octadecaneuropeptide (ODN) (peptide)
peptide: QATVGDVNTDRPGLLDLK
modifications: also: synthesised on Rink amide resin, C-terminal amide not given here outright
% Activity, arrestin, antagonist mode, 2.5 uM (ADRA1B): 0.1% | % Activity, arrestin, antagonist mode, 2.5 uM (GLP1R): -11% | % Activity, arrestin, antagonist mode, 2.5 uM (PTGER3): -10% | % Activity, arrestin, antagonist mode, 2.5 uM (HRH2): -13.3% | % Activity, arrestin, antagonist mode, 2.5 uM (OPRK1): -4.5% | % Activity, arrestin, antagonist mode, 2.5 uM (CXCR7): -9.6% | % Activity, arrestin, antagonist mode, 2.5 uM (FSHR): -16.9% | % Activity, arrestin, antagonist mode, 2.5 uM (CCR4): 1.3% | % Activity, arrestin, antagonist mode, 2.5 uM (FFAR1): -3.9% | % Activity, arrestin, antagonist mode, 2.5 uM (EDG5): -11.2% | % Activity, arrestin, antagonist mode, 2.5 uM (NMU1R): -34.2%
